Where a chain is given by its changes, count along the chain named.
B1: target 2 MT 5'PFS UAA 3'PFS UAU (mixed)
RNA 1: CACCCGUGCAAAAUUGCAGGGGUCUAAAACCUUCUCCAAAUUGUUUCAUCCU
RNA 2: GGGAAUGGAUCCACAUCUACGAAUUCUAAAGGAUGAAACAAUUUGGAGAAGUAUAGAUCGGAAGAGCACACGU
B2: target 2 MT 5'PFS GGA 3'PFS ACC (mixed)
RNA 1: B1 RNA 1
RNA 2: B1 RNA 2 with U27G, A28G, U52A, A53C, U54C
B3: target 2 MT 5'PFS AAA 3'PFS AAC (mixed)
RNA 1: B1 RNA 1
RNA 2: B1 RNA 2 with U27A, U52A, U54C
B4: target 2 MT 5'PFS AGA 3'PFS CCG (mixed)
RNA 1: B1 RNA 1
RNA 2: B1 RNA 2 with U27A, A28G, U52C, A53C, U54G
B5: target 2 MT 5'PFS AUU 3'PFS AGC (mixed)
RNA 1: B1 RNA 1
RNA 2: B1 RNA 2 with U27A, A28U, A29U, U52A, A53G, U54C
B6: target 2 MT 5'PFS CUG 3'PFS UAC (mixed)
RNA 1: B1 RNA 1
RNA 2: B1 RNA 2 with U27C, A28U, A29G, U54C
B7: target 2 MT 5'PFS AUU 3'PFS AGU (mixed)
RNA 1: B1 RNA 1
RNA 2: B1 RNA 2 with U27A, A28U, A29U, U52A, A53G
B8: target 2 MT 5'PFS UAG 3'PFS UGC (mixed)
RNA 1: B1 RNA 1
RNA 2: B1 RNA 2 with A29G, A53G, U54C
B9: target 2 MT 5'PFS AGA 3'PFS UAU (mixed)
RNA 1: B1 RNA 1
RNA 2: B1 RNA 2 with U27A, A28G
B10: target 2 MT 5'PFS CGU 3'PFS CGC (mixed)
RNA 1: B1 RNA 1
RNA 2: B1 RNA 2 with U27C, A28G, A29U, U52C, A53G, U54C
B11: target 2 MT 5'PFS AAC 3'PFS CCA (mixed)
RNA 1: B1 RNA 1
RNA 2: B1 RNA 2 with U27A, A29C, U52C, A53C, U54A
B12: target 2 MT 5'PFS UAG 3'PFS UGU (mixed)
RNA 1: B1 RNA 1
RNA 2: B1 RNA 2 with A29G, A53G
B13: target 2 MT 5'PFS GAC 3'PFS UUC (mixed)
RNA 1: B1 RNA 1
RNA 2: B1 RNA 2 with U27G, A29C, A53U, U54C
B14: target 2 MT 5'PFS AUU 3'PFS CGA (mixed)
RNA 1: B1 RNA 1
RNA 2: B1 RNA 2 with U27A, A28U, A29U, U52C, A53G, U54A
B15: target 2 MT 5'PFS AUU 3'PFS AGA (mixed)
RNA 1: B1 RNA 1
RNA 2: B1 RNA 2 with U27A, A28U, A29U, U52A, A53G, U54A
B16: target 2 MT 5'PFS ACU 3'PFS AUG (mixed)
RNA 1: B1 RNA 1
RNA 2: B1 RNA 2 with U27A, A28C, A29U, U52A, A53U, U54G
B17: target 2 MT 5'PFS GAC 3'PFS UUA (mixed)
RNA 1: B1 RNA 1
RNA 2: B1 RNA 2 with U27G, A29C, A53U, U54A
B18: target 2 MT 5'PFS GGA 3'PFS ACG (mixed)
RNA 1: B1 RNA 1
RNA 2: B1 RNA 2 with U27G, A28G, U52A, A53C, U54G
B19: target 2 MT 5'PFS GAC 3'PFS UUG (mixed)
RNA 1: B1 RNA 1
RNA 2: B1 RNA 2 with U27G, A29C, A53U, U54G
B20: target 2 MT 5'PFS GAU 3'PFS UUC (mixed)
RNA 1: B1 RNA 1
RNA 2: B1 RNA 2 with U27G, A29U, A53U, U54C
B21: target 2 MT 5'PFS GGA 3'PFS ACU (mixed)
RNA 1: B1 RNA 1
RNA 2: B1 RNA 2 with U27G, A28G, U52A, A53C
B22: target 2 MT 5'PFS AAC 3'PFS UGU (mixed)
RNA 1: B1 RNA 1
RNA 2: B1 RNA 2 with U27A, A29C, A53G
B23: target 2 MT 5'PFS CAU 3'PFS ACU (mixed)
RNA 1: B1 RNA 1
RNA 2: B1 RNA 2 with U27C, A29U, U52A, A53C
B24: target 2 MT 5'PFS UUG 3'PFS CUC (mixed)
RNA 1: B1 RNA 1
RNA 2: B1 RNA 2 with A28U, A29G, U52C, A53U, U54C
B25: target 2 MT 5'PFS UUG 3'PFS UUC (mixed)
RNA 1: B1 RNA 1
RNA 2: B1 RNA 2 with A28U, A29G, A53U, U54C
B26: target 2 MT 5'PFS ACU 3'PFS AUC (mixed)
RNA 1: B1 RNA 1
RNA 2: B1 RNA 2 with U27A, A28C, A29U, U52A, A53U, U54C
B27: target 2 MT 5'PFS AGA 3'PFS UAC (mixed)
RNA 1: B1 RNA 1
RNA 2: B1 RNA 2 with U27A, A28G, U54C
B28: target 2 MT 5'PFS UGC 3'PFS CAC (mixed)
RNA 1: B1 RNA 1
RNA 2: B1 RNA 2 with A28G, A29C, U52C, U54C
B29: target 2 MT 5'PFS AUU 3'PFS CGG (mixed)
RNA 1: B1 RNA 1
RNA 2: B1 RNA 2 with U27A, A28U, A29U, U52C, A53G, U54G
B30: target 2 MT 5'PFS GGA 3'PFS ACA (mixed)
RNA 1: B1 RNA 1
RNA 2: B1 RNA 2 with U27G, A28G, U52A, A53C, U54A
B31: target 2 MT 5'PFS CUG 3'PFS UAG (mixed)
RNA 1: B1 RNA 1
RNA 2: B1 RNA 2 with U27C, A28U, A29G, U54G
B32: target 2 MT 5'PFS ACU 3'PFS AUU (mixed)
RNA 1: B1 RNA 1
RNA 2: B1 RNA 2 with U27A, A28C, A29U, U52A, A53U
B33: target 2 MT 5'PFS AGA 3'PFS CCA (mixed)
RNA 1: B1 RNA 1
RNA 2: B1 RNA 2 with U27A, A28G, U52C, A53C, U54A
B34: target 2 MT 5'PFS AUU 3'PFS AGG (mixed)
RNA 1: B1 RNA 1
RNA 2: B1 RNA 2 with U27A, A28U, A29U, U52A, A53G, U54G
B35: target 2 MT 5'PFS GCA 3'PFS AGG (mixed)
RNA 1: B1 RNA 1
RNA 2: B1 RNA 2 with U27G, A28C, U52A, A53G, U54G
B36: target 1 insC 3' of 9,insC 3' of 1 (mixed)
RNA 1: CACCCGUGCAAAAAUGCAGGGGUCUAAAACUGAGCGGAUAACCUCUCUAUGG
RNA 2: GGGAAUGGAUCCACAUCUACGAAUUCGUACCAUAGAGAGGUUACUCCGCUCACCCGAGAUCGGAAGAGCACACGU
B37: target 1 insU 3' of 5,insA 3' of 4 (mixed)
RNA 1: B36 RNA 1
RNA 2: B36 RNA 2 with C44U, U45C, C47G, G48U, U50A, C51U, A52C, C53A
B38: target 1 insU 3' of 18,insG 3' of 7 (mixed)
RNA 1: B36 RNA 1
RNA 2: GGGAAUGGAUCCACAUCUACGAAUUCGUACCAUAUGAGAGGUUAUCGCGCUCACCGAGAUCGGAAGAGCACACGU

Target: T1, EsCas13d, nuclease-dead (Eubacterium siraeum, UniProt B0MS50, R295A;H300A;R849A;H854A)
T1 sequence: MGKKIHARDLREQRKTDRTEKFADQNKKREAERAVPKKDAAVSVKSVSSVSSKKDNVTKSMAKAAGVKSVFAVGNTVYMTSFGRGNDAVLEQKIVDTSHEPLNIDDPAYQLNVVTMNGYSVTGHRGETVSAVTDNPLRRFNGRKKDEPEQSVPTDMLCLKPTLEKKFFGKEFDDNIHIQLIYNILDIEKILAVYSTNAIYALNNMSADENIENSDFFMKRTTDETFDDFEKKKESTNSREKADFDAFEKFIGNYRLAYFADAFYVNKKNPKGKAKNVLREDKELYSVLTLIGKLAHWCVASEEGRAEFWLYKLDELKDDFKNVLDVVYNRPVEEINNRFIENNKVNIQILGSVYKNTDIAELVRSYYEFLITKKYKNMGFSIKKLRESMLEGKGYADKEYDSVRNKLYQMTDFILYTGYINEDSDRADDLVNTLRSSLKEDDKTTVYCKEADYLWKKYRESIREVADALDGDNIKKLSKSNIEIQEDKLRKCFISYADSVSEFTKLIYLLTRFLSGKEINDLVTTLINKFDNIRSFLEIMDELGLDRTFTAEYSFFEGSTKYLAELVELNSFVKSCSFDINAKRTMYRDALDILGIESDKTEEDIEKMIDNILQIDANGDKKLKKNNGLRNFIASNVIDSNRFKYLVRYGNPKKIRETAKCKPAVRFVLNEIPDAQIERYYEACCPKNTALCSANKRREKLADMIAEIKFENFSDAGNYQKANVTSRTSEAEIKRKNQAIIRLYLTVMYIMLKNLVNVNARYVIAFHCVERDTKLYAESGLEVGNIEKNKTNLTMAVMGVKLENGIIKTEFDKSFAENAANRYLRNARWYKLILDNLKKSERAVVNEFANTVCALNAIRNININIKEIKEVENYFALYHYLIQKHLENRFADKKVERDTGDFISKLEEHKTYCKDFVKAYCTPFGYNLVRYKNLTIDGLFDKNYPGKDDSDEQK
Assay: crRNA (strand 1, pre-loaded); Mg2+; 40 mM Tris-HCl pH 7.5, 150 mM NaCl, 6 mM MgCl2, 1 mM DTT, 0.1% Tween-20, 0.2 mg/ml BSA; 25 C; 10 min per concentration, then washed
Details: tags: His6-TwinStrep-SUMO cleaved; N-terminal SNAP kept (SNAP-Surface 488); label: 3' end held by stalled T7 RNA polymerase

| Binder | Kd [nM] |
| --- | --- |
| B1 | 3.7 ± 1 |
| B2 | 14.1 ± 2.6 |
| B3 | 4.6 ± 0.7 |
| B4 | 8.3 ± 1.1 |
| B5 | 6.4 ± 0.8 |
| B6 | 2.76 ± 0.35 |
| B7 | 4.5 ± 0.4 |
| B8 | 2.73 ± 0.25 |
| B9 | 7.4 ± 1.4 |
| B10 | 11.1 ± 1.7 |
| B11 | 13 ± 4 |
| B12 | 4.9 ± 0.5 |
| B13 | 33 ± 12 |
| B14 | 5.5 ± 0.4 |
| B15 | 5.4 ± 0.8 |
| B16 | 4.9 ± 0.6 |
| B17 | 14.3 ± 3 |
| B18 | 13.9 ± 1.4 |
| B19 | 15 ± 4 |

| Binder | Kd [nM] |
| --- | --- |
| B20 | 28 ± 7 |
| B21 | 9.8 ± 0.7 |
| B22 | 6.9 ± 1.2 |
| B23 | 9 ± 1.9 |
| B24 | 37 ± 8 |
| B25 | 64 ± 20 |
| B26 | 4.1 ± 0.4 |
| B27 | 6.5 ± 1.1 |
| B28 | 18 ± 4 |
| B29 | 9.6 ± 1.7 |
| B30 | 10.4 ± 1.2 |
| B31 | 3.1 ± 0.5 |
| B32 | 4.4 ± 0.6 |
| B33 | ~24 |
| B34 | 13 ± 2.9 |
| B35 | 13.1 ± 1.8 |
| B36 | 9.4 ± 0.6 |
| B37 | 16.2 ± 1.2 |
| B38 | 25.5 ± 1.2 |

Reference: PMC10786891, “Massively parallel profiling of RNA-targeting CRISPR-Cas13d”
